This note sets out measurements from article PMC4861432, “Naturally Occurring Isoleucyl-tRNA Synthetase without tRNA-dependent Pre-transfer Editing” (The Journal of Biological Chemistry, 2016).

One series addresses T1, ScIleRS (Saccharomyces cerevisiae, UniProt P09436).
T1 construct: gene ILS1; pET28b, E. coli Rosetta(DE3), Ni-NTA (His tag) and size-exclusion chromatography, monomer
T1 sequence (P09436 1-1072): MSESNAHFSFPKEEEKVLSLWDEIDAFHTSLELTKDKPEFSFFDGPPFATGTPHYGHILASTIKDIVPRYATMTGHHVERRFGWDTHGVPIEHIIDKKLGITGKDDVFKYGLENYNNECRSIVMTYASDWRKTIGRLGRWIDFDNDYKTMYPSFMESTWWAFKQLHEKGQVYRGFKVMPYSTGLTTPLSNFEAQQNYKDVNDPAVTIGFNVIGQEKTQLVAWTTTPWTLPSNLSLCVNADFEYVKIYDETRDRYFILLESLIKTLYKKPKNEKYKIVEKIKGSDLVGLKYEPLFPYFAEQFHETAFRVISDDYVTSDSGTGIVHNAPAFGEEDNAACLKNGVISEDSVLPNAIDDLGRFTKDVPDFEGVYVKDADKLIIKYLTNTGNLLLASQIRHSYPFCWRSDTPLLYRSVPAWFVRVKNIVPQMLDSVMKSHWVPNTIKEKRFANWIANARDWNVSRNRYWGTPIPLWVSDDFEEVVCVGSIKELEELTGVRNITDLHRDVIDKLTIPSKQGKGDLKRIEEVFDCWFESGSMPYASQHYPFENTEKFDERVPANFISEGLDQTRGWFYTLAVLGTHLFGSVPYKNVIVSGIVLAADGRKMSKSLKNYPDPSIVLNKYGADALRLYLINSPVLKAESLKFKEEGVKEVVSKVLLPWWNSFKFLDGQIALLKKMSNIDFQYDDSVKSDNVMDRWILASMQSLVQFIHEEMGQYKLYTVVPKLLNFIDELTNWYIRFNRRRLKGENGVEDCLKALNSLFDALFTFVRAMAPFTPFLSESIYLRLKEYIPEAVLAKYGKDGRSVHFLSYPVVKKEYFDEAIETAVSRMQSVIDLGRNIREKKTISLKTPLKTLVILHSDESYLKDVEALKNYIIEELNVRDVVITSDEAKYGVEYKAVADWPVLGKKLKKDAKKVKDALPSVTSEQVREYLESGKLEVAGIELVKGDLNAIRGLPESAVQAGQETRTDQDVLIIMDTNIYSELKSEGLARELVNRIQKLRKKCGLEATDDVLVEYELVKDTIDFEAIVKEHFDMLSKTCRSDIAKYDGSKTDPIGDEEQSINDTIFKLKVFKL
The series is described as follows: ATP-PPi exchange inhibition, global fit. In kind it is biochemical.

Another series concerns the target T2, SgIleRS (Streptomyces griseus, UniProt B1W0J8).
T2 construct: gene ileS; ileS from genomic DNA in pET28b, E. coli BL21(DE3), Ni-NTA purified (His tag), ZnCl2 added during growth
T2 sequence (B1W0J8 1-1047): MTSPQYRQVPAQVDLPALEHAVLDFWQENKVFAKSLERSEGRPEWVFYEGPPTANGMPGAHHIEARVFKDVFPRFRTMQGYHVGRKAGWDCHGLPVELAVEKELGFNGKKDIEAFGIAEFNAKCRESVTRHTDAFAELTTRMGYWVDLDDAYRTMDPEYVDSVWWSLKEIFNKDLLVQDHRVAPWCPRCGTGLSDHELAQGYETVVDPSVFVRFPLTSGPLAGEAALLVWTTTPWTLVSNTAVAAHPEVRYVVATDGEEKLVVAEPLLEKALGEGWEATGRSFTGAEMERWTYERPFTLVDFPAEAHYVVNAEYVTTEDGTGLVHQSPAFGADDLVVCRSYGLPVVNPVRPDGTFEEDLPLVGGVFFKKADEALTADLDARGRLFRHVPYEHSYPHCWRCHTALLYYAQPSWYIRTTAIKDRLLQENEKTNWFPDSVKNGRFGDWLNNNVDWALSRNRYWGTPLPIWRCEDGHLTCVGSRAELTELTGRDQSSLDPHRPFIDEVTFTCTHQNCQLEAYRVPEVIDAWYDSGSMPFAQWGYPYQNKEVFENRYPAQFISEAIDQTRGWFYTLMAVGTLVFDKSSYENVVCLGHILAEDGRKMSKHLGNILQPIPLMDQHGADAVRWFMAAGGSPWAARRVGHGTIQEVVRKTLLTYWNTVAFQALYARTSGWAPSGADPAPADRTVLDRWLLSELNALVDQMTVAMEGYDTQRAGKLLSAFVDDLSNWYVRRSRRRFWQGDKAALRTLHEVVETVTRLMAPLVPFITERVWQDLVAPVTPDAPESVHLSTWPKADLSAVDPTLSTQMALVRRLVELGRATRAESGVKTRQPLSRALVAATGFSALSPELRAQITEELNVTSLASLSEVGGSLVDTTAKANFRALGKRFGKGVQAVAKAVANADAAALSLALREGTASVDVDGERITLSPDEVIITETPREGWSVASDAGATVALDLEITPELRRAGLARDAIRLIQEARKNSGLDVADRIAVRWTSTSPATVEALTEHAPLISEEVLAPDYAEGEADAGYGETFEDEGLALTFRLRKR
The series is described as follows: ATP-PPi exchange inhibition, global fit. In kind it is biochemical.

Substrate in series [1]: CC(C)[C@H](N)C(=O)O
In words: ATP-PPi exchange (amino acid activation). The format is biochemical, Streptomyces griseus. Conditions: 30 °C, pH 7.5, 4 mM ATP, 1 mM PPi, 20 mM MgCl2, no tRNA. The source says: (§1) ATP-PPi exchange (amino acid activation) on SgIleRS

Substrate in series [2]: CC[C@H](C)[C@H](N)C(=O)O
In words: ATP-PPi exchange (amino acid activation). In kind it is biochemical, Streptomyces griseus. The following applies: 30 °C, pH 7.5, 4 mM ATP, 1 mM PPi, 20 mM MgCl2, no tRNA.
From the text: as §1

Substrate in series [3]: CC(C)[C@H](N)C(=O)O
In words: ATP-PPi exchange (amino acid activation). In kind it is biochemical, Saccharomyces cerevisiae. Conditions: 30 °C, pH 7.5, 4 mM ATP, 1 mM PPi, 20 mM MgCl2, no tRNA. The source says:
(§2) ATP-PPi exchange (amino acid activation) on ScIleRS

Substrate in series [4]: CC[C@H](C)[C@H](N)C(=O)O
The series is described as follows: ATP-PPi exchange (amino acid activation). The format is biochemical, Saccharomyces cerevisiae. Conditions: 30 °C, pH 7.5, 4 mM ATP, 1 mM PPi, 20 mM MgCl2, no tRNA.
From the text: as §2

Regarding `C/C(=C\C(=O)OCCCCCCCCC(=O)O)C[C@@H]1OC[C@H](C[C@@H]2O[C@H]2[C@@H](C)[C@H](C)O)[C@@H](O)[C@H]1O` [mupirocin], the values for the Ki on ScIleRS and on SgIleRS were 0.028 mM and 10 mM, respectively.

B1: SgIleRS (Streptomyces griseus subsp. griseus NBRC 13350) (protein)
chain: T2 sequence (B1W0J8 1-1047)
notes: ileS from genomic DNA in pET28b, E. coli BL21(DE3), Ni-NTA purified (His tag), ZnCl2 added during growth
As to B1, the figures for the kcat in series [1] and in series [2] were 19.3 ± 0.4 s⁻¹ and 20.6 ± 1.4 s⁻¹, respectively.

B2: ScIleRS (Saccharomyces cerevisiae S288C) (protein)
chain: T1 sequence (P09436 1-1072)
notes: pET28b, E. coli Rosetta(DE3), Ni-NTA (His tag) and size-exclusion chromatography, monomer
Turning to B2, the kcat (as a rule, the number of substrate molecules converted per active site and unit of time at saturation) turned out to be 8.6 ± 1 s⁻¹ in series [3] and 11.4 ± 0.8 s⁻¹ in series [4].
